Reference: patent US20200354425A1 (DONG-A ST CO., LTD., published 2020)
*1 amine or outer side, *2 acyl side, *3 side chain or, on linkers, in order; H or OH if unused. Bridges are numbered along the chain shown (N, C = ends). Where no end group is shown, it is not given here. Side-chain parts run from the residue outwards. [ ]: non-standard residue; d: D form. The star is where a group is joined. γGlu = O=C(O)[C@H](CCC(=O)[*:2])N[*:1]; Stearoyl = CCCCCCCCCCCCCCCCCC(=O)*; AEEA = NCCOCCOCC(=O)O; Aib = CC(C)(N)C(=O)O

B1: Compound 30 (peptide)
peptide: HXQGTFTSDXSKYLDERRAEDFVQWLMNTK
modifications: Aib at position 2; Z at position 10 = Lys([(2-(2-(2-aminoethoxy)ethoxy)acetoyl)2]-[gamma glutamicacid]-[octadecanoyl]); a ring formed between E and E (positions 16 and 20) via 1,2-ethylenediamino cross-link
B2: Compound 7 (peptide)
peptide: HXQGTFTSDXSKYLDXRRAQDFVQWLMNTKRNRNNIA
modifications: Aib at positions 2 and 16; Z at position 10 = Lys([(2-(2-(2-aminoethoxy)ethoxy)acetoyl)2]-[gamma glutamicacid]-[octadecanoyl])
B3: Compound 21 (peptide)
peptide: H[Aib]QGTFTSDK([AEEA-AEEA-γGlu-Stearoyl])SKYLDKRRAEDFVQWLMNTK
modifications: lactam 16-20
B4: Compound 10 (peptide)
peptide: HXQGTFTSDXSKYLDXRRAQDFVQWLMNTK
modifications: Aib at positions 2 and 16; Z at position 10 = Lys([(2-(2-(2-aminoethoxy)ethoxy)acetoyl)3]-[gamma glutamicacid]-[octadecanoyl])
B5: Compound 23 (peptide)
peptide: HXQGTFTSDXSKYLDERRAEDFVQWLMNTK
modifications: Aib at position 2; Z at position 10 = Lys([(2-(2-(2-aminoethoxy)ethoxy)acetoyl)2]-[gamma glutamicacid]-[octadecanoyl]); a ring formed between E and E (positions 16 and 20) via 1,4-piperazinyl cross-link
B6: Compound 19 (peptide)
peptide: HXQGTFTSDXSKYLDERRAKDFVQWLMNTK
modifications: Aib at position 2; Z at position 10 = Lys([(2-(2-(2-aminoethoxy)ethoxy)acetoyl)2]-[gamma glutamicacid]-[octadecanoyl]); lactam ring formed between E and K (positions 16 and 20); C-terminal amide (-NH2)
B7: Compound 17 (peptide)
peptide: HXQGTFTSDXSKYLDXRRAQDFVQWLMNTK
modifications: Aib at positions 2 and 16; Z at position 10 = Lys([(2-(2-(2-aminoethoxy)ethoxy)acetoyl)]-[gamma glutamicacid]-[octadecanoyl])
B8: Compound 37 (peptide)
peptide: H-H[Aib]QGTFTSDK([AEEA-AEEA-γGlu-Stearoyl])SKYLDDRRAKDFVQWLMNTK-OH
modifications: bridge 16-20; not fully specified (bridges); printed as H-HAibQGTFTSDZSKYLDDRRAKDFVQWLMNTK-OH
B9: Compound 15 (peptide)
peptide: H[Aib]QGTFTSDYSKYLDK([AEEA-AEEA-γGlu-Stearoyl])RRAQDFVQWLMNTK
B10: Compound 42 (peptide)
peptide: HXQGTFTSDXSKYLDXRRAQDFVQWLMNTK
modifications: not fully specified; Aib at positions 2 and 16; Z at position 10 = Lys([(2-(2-(2-aminoethoxy)ethoxy)acetoyl)2]-[gammaglutamicacid]-[15-carboxypeptadecanoyl]) (so in the source)
B11: Compound 39 (peptide)
peptide: H[Aib]QGTFTSDKSKYLD[Aib]RRAQDFVQWLMNTK
B12: Compound 6 (peptide)
peptide: HXQGTFTSDXSKYLDXRRAQDFVQWLMNTK
modifications: Aib at positions 2 and 16; Z at position 10 = Lys([(2-(2-(2-aminoethoxy)ethoxy)acetoyl)2]-[gamma glutamicacid]-[octadecanoyl]); C-terminal amide (-NH2)
B13: Compound 34 (peptide)
peptide: HXQGTFTSDXSKYLDERRAKDFVQWLMNTK
modifications: not fully specified; Aib at position 2; Z at position 10 = Lys([(2-(2-(2-aminoethoxy)ethoxy)acetoyl)2]-[gamma glutamicacid]-[octadecanoyl]); a ring formed between E and K (positions 16 and 20) via 4-aminobenzoyl cross-link
B14: Compound 14 (peptide)
peptide: HXQGTFTSDXSKYLDERRAKDFVQWLMNTK
modifications: Aib at position 2; Z at position 10 = Lys([(2-(2-(2-aminoethoxy)ethoxy)acetoyl)2]-[gamma glutamicacid]-[octadecanoyl]); lactam ring formed between E and K (positions 16 and 20)
B15: Compound 27 (peptide)
peptide: H[Aib]QGTFTSDK([AEEA-AEEA-γGlu-Stearoyl])SKYLDKRRADDFVQWLMNTK
modifications: lactam 16-20
B16: Compound 26 (peptide)
peptide: H[Aib]QGTFTSDK([AEEA-AEEA-γGlu-Stearoyl])SKYLDDRRAKDFVQWLMNTK
modifications: lactam 16-20
B17: Compound 44 (peptide)
peptide: HXQGTFTSDXSKYLDXRRAQDFVQWLMNTK
modifications: not fully specified; Aib at positions 2 and 16; Z at position 10 = Lys([(2-(2-(2-aminoethoxy)ethoxy)acetoyl)2]-[gammaglutamicacid]-[19-carboxypeptadecanoyl]) (so in the source)
B18: Compound 4 (peptide)
peptide: HSQGTFTSDXSKYLDSRRAQDFVQWLMNTK
modifications: Z at position 10 = Lys([(2-(2-(2-aminoethoxy)ethoxy)acetoyl)2]-[gamma glutamicacid]-[octadecanoyl]); C-terminal amide (-NH2)
B19: Compound 40 (peptide)
peptide: H[Aib]QGTFTSK([AEEA-AEEA-γGlu-Stearoyl])YSKYLD[Aib]RRAQDFVQWLMNTK
B20: Compound 20 (peptide)
peptide: HXQGTFTSDXSKYLDERRAKDFVQWLMNTK
modifications: Aib at position 2; Z at position 10 = Lys([(2-(2-(2-aminoethoxy)ethoxy)acetoyl)3]-[gamma glutamicacid]-[octadecanoyl]); lactam ring formed between E and K (positions 16 and 20)
B21: Compound 43 (peptide)
peptide: HXQGTFTSDXSKYLDXRRAQDFVQWLMNTK
modifications: Aib at positions 2 and 16; Z at position 10 = Lys([(2-(2-(2-aminoethoxy)ethoxy)acetoyl)2]-[gammaglutamicacid]-[17-carboxyheptadecanoyl])
B22: Compound 22 (peptide)
peptide: H[Aib]QGTFTSDK([AEEA-AEEA-γGlu-Stearoyl])SKYLDCRRACDFVQWLMNTK
modifications: linker 16-20 via 1,3‑phenyhenedimethyl
B23: Compound 11 (peptide)
peptide: HXQGTFTSDXSKYLDXRRAQDFVQWLMNTK
modifications: Aib at positions 2 and 16; Z at position 10 = Lys([Gly-Gly-Ser-Gly-Ser-Gly]-[gamma glutamic acid]-[octadecanoyl])
B24: Compound 47 (peptide)
peptide: H-H[Aib]QGTFTSDYSKYLDEKRAKEFVQWLMNTKC-OH
modifications: lactam 16-20
SMILES: CSCC[C@H](NC(=O)[C@H](CC(C)C)NC(=O)[C@H](Cc1c[nH]c2ccccc12)NC(=O)[C@H](CCC(N)=O)NC(=O)[C@@H](NC(=O)[C@H](Cc1ccccc1)NC(=O)[C@H](CCC(=O)O)NC(=O)[C@@H]1CCCCNC(=O)CC[C@H](NC(=O)[C@H](CC(=O)O)NC(=O)[C@H](CC(C)C)NC(=O)[C@H](Cc2ccc(O)cc2)NC(=O)[C@H](CCCCN)NC(=O)[C@H](CO)NC(=O)[C@H](Cc2ccc(O)cc2)NC(=O)[C@H](CC(=O)O)NC(=O)[C@H](CO)NC(=O)[C@@H](NC(=O)[C@H](Cc2ccccc2)NC(=O)[C@@H](NC(=O)CNC(=O)[C@H](CCC(N)=O)NC(=O)C(C)(C)NC(=O)[C@@H](N)Cc2c[nH]cn2)[C@@H](C)O)[C@@H](C)O)C(=O)N[C@@H](CCCCN)C(=O)N[C@@H](CCCNC(=N)N)C(=O)N[C@@H](C)C(=O)N1)C(C)C)C(=O)N[C@@H](CC(N)=O)C(=O)N[C@H](C(=O)N[C@@H](CCCCN)C(=O)N[C@@H](CS)C(=O)O)[C@@H](C)O
B25: Compound 2 (peptide)
peptide: H[Aib]QGTFTSDK([AEEA-AEEA-γGlu-Stearoyl])SKYLDSRRAQDFVQWLMNTK
B26: Compound 29 (peptide)
peptide: HXQGTFTSDXSKYLDERRAEDFVQWLMNTK
modifications: Aib at position 2; Z at position 10 = Lys([(2-(2-(2-aminoethoxy)ethoxy)acetoyl)2]-[gamma glutamicacid]-[octadecanoyl]); a ring formed between E and E (positions 16 and 20) via 1,4-phenylenediamino cross-link
B27: Compound 25 (peptide)
peptide: HXQGTFTSDXSKYLDERRAKDFVQWLMNTK
modifications: Aib at position 2; Z at position 10 = Lys([(2-(2-(2-aminoethoxy)ethoxy)acetoyl)4]-[gamma glutamicacid]-[octadecanoyl]); lactam ring formed between E and K (positions 16 and 20)
B28: Compound 12 (peptide)
peptide: H[Aib]QGTFTSDK([AEEA-AEEA-γGlu-Stearoyl])SKYLD[Aib]RRAQDFVQWLLRAK
B29: Compound 36 (peptide)
peptide: HXQGTFTSDXSKYLDERRAKDFVQWLMNTK
modifications: not fully specified; Aib at position 2; Z at position 10 = Lys([(2-(2-(2-aminoethoxy)ethoxy)acetoyl)2]-[gamma glutamicacid]-[octadecanoyl]); a ring formed between E and K (positions 16 and 20) via leucine cross-link
B30: Compound 32 (peptide)
peptide: H[Aib]QGTFTSDK([AEEA-AEEA-γGlu-Stearoyl])SKYLDKRRAEDFVQWLMNTK
modifications: linker 16-20 via 4‑carbonylpiperidin‑1‑yl
B31: Compound 3 (peptide)
peptide: HXQGTFTSDXSKYLDXRRAQDFVQWLMNTK
modifications: Aib at positions 2 and 16; Z at position 10 = Lys([(2-(2-(2-aminoethoxy)ethoxy)acetoyl)2]-[gamma glutamicacid]-[octadecanoyl])
B32: Compound 31 (peptide)
peptide: H[Aib]QGTFTSDK([AEEA-AEEA-γGlu-Stearoyl])SKYLDKRRAKDFVQWLMNTK
modifications: linker 16-20 via 1,4‑phenylenebiscarbconyl
B33: Compound 35 (peptide)
peptide: HXQGTFTSDXSKYLDERRAKDFVQWLMNTK
modifications: not fully specified; Aib at position 2; Z at position 10 = Lys([(2-(2-(2-aminoethoxy)ethoxy)acetoyl)2]-[gamma glutamicacid]-[octadecanoyl]); a ring formed between E and K (positions 16 and 20) via glycine cross-link
B34: Compound 33 (peptide)
peptide: HXQGTFTSDXSKYLDERRAKDFVQWLMNTK
modifications: Aib at position 2; Z at position 10 = Lys([(2-(2-(2-aminoethoxy)ethoxy)acetoyl)2]-[gamma glutamicacid]-[octadecanoyl]); a ring formed between E and K (positions 16 and 20) via 1-aminocyclohexan-4-carbonyl cross-link
B35: Compound 16 (peptide)
peptide: H[Aib]QGTFTSDYSKYLD[Aib]RRAK([AEEA-AEEA-γGlu-Stearoyl])DFVQWLMNTK

Key:
[1] = target: Human GLP-1 receptor (human, UniProt P43220); assay: cell-based or functional assay
[2] = target: Human glucagon receptor (human, UniProt P47871); assay: cell-based or functional assay

| Binder | EC50(pM), CRE-driven luciferase activity [1] | EC50(pM), CRE-driven luciferase activity [2] |
| --- | --- | --- |
| B1 | < 10 pM | < 10 pM |
| B2 | < 10 pM | < 10 pM |
| B3 | < 10 pM | < 10 pM |
| B4 | < 10 pM | < 10 pM |
| B5 | < 10 pM | < 10 pM |
| B6 | < 10 pM | < 10 pM |
| B7 | < 10 pM | < 10 pM |
| B8 | < 10 pM | < 10 pM |
| B9 | < 10 pM | < 10 pM |
| B10 |  | > 1000 pM |
| B11 | > 1000 pM | > 1000 pM |
| B12 | < 10 pM | < 10 pM |
| B13 | < 10 pM | < 10 pM |
| B14 | < 10 pM | < 10 pM |
| B15 | < 10 pM | < 10 pM |
| B16 | < 10 pM | < 10 pM |
| B17 |  | > 1000 pM |
| B18 | < 10 pM |  |

| Binder | EC50(pM), CRE-driven luciferase activity [1] | EC50(pM), CRE-driven luciferase activity [2] |
| --- | --- | --- |
| B19 |  | > 1000 pM |
| B20 | < 10 pM | < 10 pM |
| B21 | > 1000 pM | > 1000 pM |
| B22 | < 10 pM | < 10 pM |
| B23 | < 10 pM |  |
| B24 | < 10 pM |  |
| B25 | < 10 pM | < 10 pM |
| B26 | < 10 pM | < 10 pM |
| B27 | < 10 pM | < 10 pM |
| B28 | < 10 pM | < 10 pM |
| B29 | < 10 pM | < 10 pM |
| B30 | < 10 pM | < 10 pM |
| B31 | < 10 pM | < 10 pM |
| B32 | < 10 pM | < 10 pM |
| B33 | < 10 pM | < 10 pM |
| B34 | < 10 pM | < 10 pM |
| B35 | < 10 pM | < 10 pM |
